1 substance from publication PMC8165646 can be followed below.

The assay has as its target HA-tagged mutant (Leu15) AP2σ2 subunit (human) (human) (UniProt P53680). Kind of assay: co-IP; lysates of HEK293 cells stably expressing FLAG-CaSR with HA-tagged WT or Leu15 AP2σ2; anti-HA-sepharose beads 2 h; blots with anti-AP2α, anti-AP2β2 and anti-AP2μ2 for the endogenous subunits; lysis buffer 0.5% NP40, 135 mM NaCl, 20 mM Tris pH 7.5, 1 mM EDTA.

In turn, “AP2α subunit, endogenous in HEK293 (from UniProt O95782 1-977) (natural protein)” had a reduction of the subunit in the HA-AP2σ2 immunoprecipitate, Leu15 cells against WT cells greater than 50%.
